Results taken from patent publication US20250043302A1, “MUTATED HYDROXYPHENYLPYRUVATE DIOXYGENASE POLYPEPTIDE, AND CODING GENE AND USE THEREOF” (BEIJING DABEINONG BIOTECHNOLOGY CO., LTD., priority 2021, published 2025).

Experiments:
[1] = tested on: Arabidopsis thaliana T1 plants; experiment: Mesotrione tolerance of transgenic Arabidopsis thaliana T1 plants (spray, bleached leaf area grade, damage score); assay type: in vivo; set-up: Scores: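 damage score 0-100 computed as Σ(N×S)/(T×M)×100 over grades 0-3 with higher meaning more damage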; settings: for Classification and statistics of the grade of pesticide damage: Grade 0 / Classification and statistics of the grade of pesticide damage: Grade 1 / Classification and statistics of the grade of pesticide damage: Grade 2 / Classification and statistics of the grade of pesticide damage: Grade 3: number of plants
Method in brief: (§1)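 Read-out: per-plant damage grade 0–3 from proportion of bleached leaf area at 7 DAT (1 <50%, 2 >50%, 3 100%). Plants were T1 transformants, glufosinate-selected, plus wild-type CK, sprayed 18 days post-sowing. Rates: topramezone 25–200, isoxaflutole 35–280, mesotrione 52.5–420 g ai/ha.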

[2] = tested on: Arabidopsis thaliana T1 plants; experiment: Topramezone tolerance of transgenic Arabidopsis thaliana T1 plants (spray, bleached leaf area grade, damage score); assay type: in vivo; settings: for Classification and statistics of the grade of pesticide damage Grade 0: number of plants at grade 0; for Classification and statistics of the grade of pesticide damage Grade 1: number of plants at grade 1; for Classification and statistics of the grade of pesticide damage Grade 2: number of plants at grade 2; for Classification and statistics of the grade of pesticide damage Grade 3: number of plants at grade 3; for Classification and statistics of the grade of pesticide damage: Grade 0 / Classification and statistics of the grade of pesticide damage: Grade 1 / Classification and statistics of the grade of pesticide damage: Grade 2 / Classification and statistics of the grade of pesticide damage: Grade 3: number of plants; for Grade 0 (classification and statistics of the grade of pesticide damage; number of plants) / Grade 1 (classification and statistics of the grade of pesticide damage; number of plants) / Grade 2 (classification and statistics of the grade of pesticide damage; number of plants) / Grade 3 (classification and statistics of the grade of pesticide damage; number of plants): 16 plants
Method in brief: as §1

[3] = mesotrione 210 g ai/ha (two-fold field concentration), 7 DAT, Table 3
[4] = mesotrione 210 g ai/ha, number of plants in grade
[5] = mesotrione 420 g ai/ha (4×), 7 DAT, Table 3
[6] = mesotrione 420 g ai/ha, number of plants in grade
[7] = Table 10, topramezone 100 g ai/ha (4×)
[8] = Table 10, topramezone 200 g ai/ha (8×)
[9] = topramezone 100 g ai/ha (4×), 7 DAT, Table 1
[10] = topramezone 200 g ai/ha (8×), 7 DAT, Table 1
[11] = topramezone 100 g ai/ha (4x field concentration), Arabidopsis thaliana T1 plants
[12] = topramezone 200 g ai/ha (8x field concentration), Arabidopsis thaliana T1 plants

B1: AsHPPD-02: nucleotide sequence encoding Avena sativa wild-type HPPD; vector DBN11727 (nucleic acid)
DNA: ATGCCACCTACTCCAGCTACAGCTACTGGTGCTGCTGCTGCTGCCGTTACTCCTGAGCACGCTGCCAGGTCATTCCCCAGGGTGGTTCGCGTGAACCCCAGATCTGATAGGTTCCCAGTTCTGAGCTTCCACCATGTTGAGCTGTGGTGCGCTGATGCTGCTTCTGCTGCTGGCAGGTTCTCTTTCGCTCTTGGTGCTCCACTCGCTGCTAGATCTGATCTGTCTACAGGAAATAGCGCTCATGCCTCACTCCTGCTTCGCTCAGGTGCTTTGGCCTTCCTCTTCACCGCTCCATATGCTCCCCCACCTCAGGAGGCTGCTACTGCTGCTGCTACAGCCTCCATTCCAAGCTTCTCAGCTGATGCCGCTAGAACCTTCGCTGCTGCTCATGGACTTGCCGTGAGGTCTGTTGGTGTTCGCGTGGCTGATGCTGCTGAGGCTTTCAGAGTTTCCGTTGCCGGCGGAGCTAGGCCAGCTTTCGCTCCTGCTGATTTGGGACATGGTTTCGGCCTGGCTGAGGTTGAGCTTTACGGTGACGTGGTTCTCCGCTTCGTGTCTTACCCAGATGAGACTGACCTGCCTTTCCTTCCCGGCTTCGAGAGAGTTTCCTCTCCTGGTGCCGTGGATTACGGCCTGACAAGGTTCGACCACGTGGTTGGAAACGTTCCCGAGATGGCTCCAGTGATCGATTACATGAAGGGCTTCCTTGGATTCCATGAGTTCGCCGAGTTCACTGCTGAGGACGTGGGAACCACTGAGTCCGGTTTGAACTCTGTGGTTCTCGCCAACAATTCTGAGGCTGTTTTGCTCCCTCTGAATGAGCCTGTGCATGGAACCAAGAGGAGAAGCCAGATTCAAACTTACCTGGAGTACCACGGTGGCCCTGGAGTTCAGCATATCGCCCTTGCTTCTAATGATGTGTTGCGCACACTCAGAGAGATGCGCGCCAGAACCCCCATGGGAGGTTTCGAGTTCATGGCCCCACCACAGGCTAAGTACTACGAGGGCGTTAGAAGGATTGCTGGAGACGTGTTGAGCGAGGAGCAGATCAAGGAGTGCCAAGAGCTGGGTGTTCTTGTGGATAGGGATGACCAGGGCGTTCTGCTTCAAATTTTCACTAAGCCAGTGGGCGACCGCCCTACATTCTTCCTTGAGATGATTCAAAGAATCGGCTGCATGGAGAAGGATGAGGTTGGACAGGAGTACCAAAAGGGCGGATGCGGTGGCTTCGGAAAGGGTAACTTCAGCGAGTTGTTCAAGTCAATCGAGGACTACGAGAAGAGCCTCGAGGTGAAGCAGTCAGTGGTTGCCCAAAAGTCCTGA
modifications: AsHPPD-02 Nucleotide Sequence
notes: vector DBN11727
Resistance evaluation ([1]; Table 9, mesotrione 210 g ai/ha (2×)): Non-resistant
Classification and statistics of the grade of pesticide damage Grade 0 ([1]; Table 9, mesotrione 210 g ai/ha (2×), number of plants at grade 0): 0
Classification and statistics of the grade of pesticide damage Grade 1 ([1]; Table 9, mesotrione 210 g ai/ha (2×), number of plants at grade 1): 0
Classification and statistics of the grade of pesticide damage Grade 2 ([1]; Table 9, mesotrione 210 g ai/ha (2×), number of plants at grade 2): 0
Classification and statistics of the grade of pesticide damage Grade 3 ([1]; Table 9, mesotrione 210 g ai/ha (2×), number of plants at grade 3): 16
Scores ([1]; Table 9, mesotrione 210 g ai/ha (2×), pesticide damage score): 100
Resistance evaluation ([1]; Table 9, mesotrione 420 g ai/ha (4×)): Non-resistant
Classification and statistics of the grade of pesticide damage Grade 0 ([1]; Table 9, mesotrione 420 g ai/ha (4×), number of plants at grade 0): 0
Classification and statistics of the grade of pesticide damage Grade 1 ([1]; Table 9, mesotrione 420 g ai/ha (4×), number of plants at grade 1): 0
Classification and statistics of the grade of pesticide damage Grade 2 ([1]; Table 9, mesotrione 420 g ai/ha (4×), number of plants at grade 2): 0
Classification and statistics of the grade of pesticide damage Grade 3 ([1]; Table 9, mesotrione 420 g ai/ha (4×), number of plants at grade 3): 16
Scores ([1]; Table 9, mesotrione 420 g ai/ha (4×), pesticide damage score): 100
Resistance evaluation ([1]; Table 12, mesotrione 210 g ai/ha (2×)): Non-resistant
Classification and statistics of the grade of pesticide damage Grade 0 ([1]; Table 12, mesotrione 210 g ai/ha (2×), number of plants at grade 0): 0
Classification and statistics of the grade of pesticide damage Grade 1 ([1]; Table 12, mesotrione 210 g ai/ha (2×), number of plants at grade 1): 0
Classification and statistics of the grade of pesticide damage Grade 2 ([1]; Table 12, mesotrione 210 g ai/ha (2×), number of plants at grade 2): 0
Classification and statistics of the grade of pesticide damage Grade 3 ([1]; Table 12, mesotrione 210 g ai/ha (2×), number of plants at grade 3): 16
Scores ([1]; Table 12, mesotrione 210 g ai/ha (2×), pesticide damage score): 100
Resistance evaluation ([1]; Table 12, mesotrione 420 g ai/ha (4×)): Non-resistant
Classification and statistics of the grade of pesticide damage Grade 0 ([1]; Table 12, mesotrione 420 g ai/ha (4×), number of plants at grade 0): 0
Classification and statistics of the grade of pesticide damage Grade 1 ([1]; Table 12, mesotrione 420 g ai/ha (4×), number of plants at grade 1): 0
Classification and statistics of the grade of pesticide damage Grade 2 ([1]; Table 12, mesotrione 420 g ai/ha (4×), number of plants at grade 2): 0
Classification and statistics of the grade of pesticide damage Grade 3 ([1]; Table 12, mesotrione 420 g ai/ha (4×), number of plants at grade 3): 16
Scores ([1]; Table 12, mesotrione 420 g ai/ha (4×), pesticide damage score): 100
tolerance to mesotrione (in words) ([1]; in vivo): no tolerance
Resistance evaluation ([1]; mesotrione 210 g ai/ha): Non-resistant
Scores ([1]; mesotrione 210 g ai/ha): 100
Resistance evaluation [1, 3]: non-resistant (non-resistant plants (scores 68-100))
Classification and statistics of the grade of pesticide damage Grade 0 [1, 4]: 0
Classification and statistics of the grade of pesticide damage Grade 1 [1, 4]: 0
Classification and statistics of the grade of pesticide damage Grade 2 [1, 4]: 0
Classification and statistics of the grade of pesticide damage Grade 3 [1, 4]: 16
Resistance evaluation ([1]; mesotrione 420 g ai/ha): Non-resistant
Scores ([1]; mesotrione 420 g ai/ha): 100
Resistance evaluation [1, 5]: non-resistant (non-resistant plants (scores 68-100))
Classification and statistics of the grade of pesticide damage Grade 0 [1, 6]: 0
Classification and statistics of the grade of pesticide damage Grade 1 [1, 6]: 0
Classification and statistics of the grade of pesticide damage Grade 2 [1, 6]: 0
Classification and statistics of the grade of pesticide damage Grade 3 [1, 6]: 16
Classification and statistics of the grade of pesticide damage: Grade 0 [1, 3]: 0
Classification and statistics of the grade of pesticide damage: Grade 1 [1, 3]: 0
Classification and statistics of the grade of pesticide damage: Grade 2 [1, 3]: 0
Classification and statistics of the grade of pesticide damage: Grade 3 [1, 3]: 16
Classification and statistics of the grade of pesticide damage: Grade 0 [1, 5]: 0
Classification and statistics of the grade of pesticide damage: Grade 1 [1, 5]: 0
Classification and statistics of the grade of pesticide damage: Grade 2 [1, 5]: 0
Classification and statistics of the grade of pesticide damage: Grade 3 [1, 5]: 16
Scores ([1]; pesticide damage score 0-100, mesotrione 210 g ai/ha (two-fold field concentration), 7 DAT, Table 3): 100
Scores ([1]; pesticide damage score 0-100, mesotrione 420 g ai/ha (4×), 7 DAT, Table 3): 100
Resistance evaluation [2, 7]: Non-resistant
Classification and statistics of the grade of pesticide damage Grade 0 [2, 7]: 0
Classification and statistics of the grade of pesticide damage Grade 1 [2, 7]: 0
Classification and statistics of the grade of pesticide damage Grade 2 [2, 7]: 4
Classification and statistics of the grade of pesticide damage Grade 3 [2, 7]: 12
Scores ([2]; Table 10, topramezone 100 g ai/ha (4×), pesticide damage score): 92
Resistance evaluation [2, 8]: Non-resistant
Classification and statistics of the grade of pesticide damage Grade 0 [2, 8]: 0
Classification and statistics of the grade of pesticide damage Grade 1 [2, 8]: 0
Classification and statistics of the grade of pesticide damage Grade 2 [2, 8]: 0
Classification and statistics of the grade of pesticide damage Grade 3 [2, 8]: 16
Scores ([2]; Table 10, topramezone 200 g ai/ha (8×), pesticide damage score): 100
tolerance to topramezone (in words) ([2]; in vivo): no tolerance
Classification and statistics of the grade of pesticide damage: Grade 0 [2, 9]: 0
Classification and statistics of the grade of pesticide damage: Grade 1 [2, 9]: 0
Classification and statistics of the grade of pesticide damage: Grade 2 [2, 9]: 4
Classification and statistics of the grade of pesticide damage: Grade 3 [2, 9]: 12
Classification and statistics of the grade of pesticide damage: Grade 0 [2, 10]: 0
Classification and statistics of the grade of pesticide damage: Grade 1 [2, 10]: 0
Classification and statistics of the grade of pesticide damage: Grade 2 [2, 10]: 0
Classification and statistics of the grade of pesticide damage: Grade 3 [2, 10]: 16
Scores ([2]; pesticide damage score 0-100, topramezone 100 g ai/ha (4×), 7 DAT, Table 1): 92
Scores ([2]; pesticide damage score 0-100, topramezone 200 g ai/ha (8×), 7 DAT, Table 1): 100
Resistance evaluation [2, 11]: Non-resistant
Scores [2, 11]: 92
Grade 0 (classification and statistics of the grade of pesticide damage; number of plants) [2, 11]: 0
Grade 1 (classification and statistics of the grade of pesticide damage; number of plants) [2, 11]: 0
Grade 2 (classification and statistics of the grade of pesticide damage; number of plants) [2, 11]: 4
Grade 3 (classification and statistics of the grade of pesticide damage; number of plants) [2, 11]: 12
Resistance evaluation [2, 9]: non-resistant (non-resistant plants (scores 68-100))
Resistance evaluation [2, 12]: Non-resistant
Scores [2, 12]: 100
Grade 0 (classification and statistics of the grade of pesticide damage; number of plants) [2, 12]: 0
Grade 1 (classification and statistics of the grade of pesticide damage; number of plants) [2, 12]: 0
Grade 2 (classification and statistics of the grade of pesticide damage; number of plants) [2, 12]: 0
Grade 3 (classification and statistics of the grade of pesticide damage; number of plants) [2, 12]: 16
Resistance evaluation [2, 10]: non-resistant (non-resistant plants (scores 68-100))
